From patent publication US20210130452A1 (Merck KGaA, published 2021)
Substitutions are numbered along the chain they refer to. Names and notes keep the numbering of the source.

T1: human IL-17F (human, UniProt Q96PD4 31-163)
T1 construct: made in Hek293 cells (GenBank AF384857); also called hIL-17F; hIL17F
T1 sequence: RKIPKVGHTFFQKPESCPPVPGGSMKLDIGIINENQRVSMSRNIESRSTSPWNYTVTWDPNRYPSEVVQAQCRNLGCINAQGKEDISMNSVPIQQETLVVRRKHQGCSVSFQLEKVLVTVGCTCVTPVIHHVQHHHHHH

T2: human IL-17F (human, UniProt Q96PD4 31-163, biotinylated with Sulfo-NHS-LC-Biotin in the AlphaScreen assays only)
T2 construct: also called hIL-17F; recombinant human IL-17F
T2 sequence: T1 sequence

B1: IL17MS3018 (VHH)
VHH: EVQLVESGGGLVQPGGSLRLSCAASGRTYDAMGWLRQAPGKEREFVAAISGSGDDTYYADSVKGRFTISKDNSGITMYLQMNSLRPEDTAVYYCATRRGLYYVWDSNDYENWGQGTLVTVSS
notes: basic variant of IL17MS13E02; Kabat numbering; also called IL17MS3018 basic
B2: IL17MS3019 (VHH)
VHH: B1 VHH with L35F
notes: variant of IL17MS13E02; Kabat numbering
B3: IL17MS3020 (VHH)
VHH: B1 VHH with K70R
notes: as for B2
B4: IL17MS3021 (VHH)
VHH: B1 VHH with G74K
notes: as for B2
B5: IL17MS3022 (VHH)
VHH: B1 VHH with I75N
notes: as for B2
B6: IL17MS3027 (VHH)
VHH: B1 VHH with K70R, I75N
notes: as for B2
B7: IL17MS3032 (VHH)
VHH: B1 VHH with K70R, G74K, I75N
notes: as for B2
B8: IL17MS3034 (VHH)
VHH: B1 VHH with P14A, M32L, S73A, R85K, L117Q
notes: as for B2
B9: IL17MS3035 (VHH)
VHH: B1 VHH with P14A, S73A, M77L, R85K, L117Q
notes: as for B2
B10: IL17MS3036 (VHH)
VHH: B1 VHH with P14A, S73A, R85K, S106T, L117Q
notes: as for B2
B11: IL17MS3037 (VHH)
VHH: B1 VHH with P14A, S73A, R85K, S106A, L117Q
notes: as for B2
B12: 02E03 (VHH)
VHH: EVQLVESGGGLVQPGGSLRLSCAASGFTFSSYAMSWARQAPGEGLEWVSDINSGGTRTTYADSVKGRFTISRDNAKNTLYLQMNSLKPEDTAVYVCAKLSVFRSQLGGKYYGGDYENRGQGTQVTVSS
notes: Class 1 Nanobody (anti-IL-17A); not shown: c-myc, His6 tag
B13: 03E05 (VHH)
VHH: EVQLVESGGGLVQAGGSLRLSCAASGVTFDDYSIGWFRQAPGKEREGVSCISSSDGIPYYSDFVKGRFTTSIDNAKNTVYLQMNSLKPEDTAVYYCAAGFGRLCAEFDSWGQGTQVTVSS
notes: as for B12
B14: 01D02 (VHH)
VHH: EVQLVESGGGLVQAGGSLRLSCAASGLSFSSYALGWFRQAPGKERDFVAAINWSGDNTHYADSVKGRFTISRDNAKNTVSLQMNSLKPEDTAVYYCAAQLGYESGYSLTYDYDYWGQGTQVTVSS
notes: as for B12
B15: 17C01 (VHH)
VHH: EVQLVESGGRLVQAGGSLRLPCAASGRTFTSYPMGWFRQAPGKEREFVAAISMSGDDAAYADFVRGRFTISRDDARNTVYLHMTSLKPEDTAVYYCAARTSYDGTYDYIDDYSYWGQGTQVTVSS
notes: Class 4 Nanobody (cross-reactive: anti-IL-17A, IL-17F and IL-17A/F); not shown: c-myc, His6 tag
B16: 18B05 (VHH)
VHH: EVQLVKSGGGLVQPGGSLRLSCAASGGTFSLFAMGWFREAPGKEREFVAAIRWSDGSSYYADSVKGRFTISRDNAKNAVHLQSNSLKSEDTAVYYCYADVQGGLHRYWGQGTQVTVSS
notes: as for B15
B17: IL17MS3015 (VHH, name in Kabat numbering)
VHH: EVQLVESGGGLVQPGGSLRLSCTASGTIVNIHVMGWYRQAPGKQRELVALIFSGGSADYADSVKGRFTISRDNSKNTVYLQMNSLRPEDTAVYYCAAEIGYYSGGTYYSSEAHWGQGTLVTVSS
notes: basic + Q18L, A84P; Kabat positions
B18: IL17MS3016 (VHH, name in Kabat numbering)
VHH: B17 VHH with L18Q, T23A
notes: basic + T23A, A84P; Kabat positions

These binders were tested against T3, human IL-17A (human, UniProt Q16552 24-155) (assay: AlphaScreen hIL-17A-IL-17RA; vs IL17MS13E02).
T3 construct: secreted form made in Hek293 cells (GenBank U32659); also called hIL-17A; hIL17A
T3 sequence (Q16552 other isoform, or with tags, fused parts or gaps): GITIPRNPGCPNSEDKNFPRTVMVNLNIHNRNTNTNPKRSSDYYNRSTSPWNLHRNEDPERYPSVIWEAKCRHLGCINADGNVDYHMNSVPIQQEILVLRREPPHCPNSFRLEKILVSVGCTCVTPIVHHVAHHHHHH

Row | Binder | IC50 fold difference vs WT
1 | B1 | 1.13 fold
2 | B2 | 3.72 fold
3 | B3 | 1.24 fold
4 | B4 | 2.75 fold
5 | B5 | 1.17 fold
6 | B6 | 1.23 fold
7 | B7 | 1.42 fold
8 | B8 | 1.68 fold
9 | B9 | 2 fold
10 | B10 | 2.06 fold
11 | B11 | 1.61 fold

Each binder was assayed against T4, human IL-17A (human, UniProt Q16552 24-155, biotinylated with Sulfo-NHS-LC-Biotin in the AlphaScreen assays only) (assay: cell-based or functional assay).
T4 sequence (Q16552 other isoform, or with tags, fused parts or gaps): as above

Row | Binder | IL-17A-induced IL-6 production in HT-1080 cells, Emax | IL-17A-induced IL-6 production in HT-1080 cells, IC50
12 | B12 | 99.3% | 16.4 nM
13 | B13 | 100% | 4 nM
14 | B14 | 101% | 4.8 nM
15 | B15 | 105% | 15.1 nM
16 | B16 | 104% | 20.6 nM

These binders were tested against T5, human IL-17A/F heterodimer (human, UniProt Q16552 24-155; Q96PD4 31-163, limits assumed, biotinylated with Sulfo-NHS-LC-Biotin in the AlphaScreen assays only) (assay: SPR Biacore, hIL-17A/F on chip; purified protein).
T5 construct: also called hIL-17A/F
Target sequence in this assay (Q16552 24-155 limits assumed, chain 1 of 2, one chain of several): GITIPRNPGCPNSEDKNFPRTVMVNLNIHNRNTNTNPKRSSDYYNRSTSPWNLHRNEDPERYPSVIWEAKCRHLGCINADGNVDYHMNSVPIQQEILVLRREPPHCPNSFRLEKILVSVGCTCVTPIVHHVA

Row | Binder | koff
17 | B15 | 0.00075 s⁻¹
18 | B16 | 0.00012 s⁻¹

These binders were tested against T6, human IL-17A/F heterodimer (human, UniProt Q16552 24-155; Q96PD4 31-163, limits assumed) (assay: SPR (Biacore) off-rate).
T6 construct: bought, made in E. coli (R&D Systems 5194-IL/CF); also called hIL-17A/F; hIL17A/F

Row | Binder | koff
19 | B1 | 1.38e-05 s⁻¹
20 | B2 | 0.00031 s⁻¹
21 | B3 | < 1e-06 s⁻¹
22 | B4 | 6.43e-05 s⁻¹
23 | B5 | 9.89e-06 s⁻¹
24 | B8 | 4.02e-05 s⁻¹
25 | B9 | 3.65e-05 s⁻¹
26 | B10 | 4.31e-05 s⁻¹
27 | B11 | 4.67e-05 s⁻¹

Each binder was assayed against T3, human IL-17A (assay: SPR (Biacore) off-rate).

Row | Binder | koff
28 | B1 | 9.26e-05 s⁻¹
29 | B2 | 0.000745 s⁻¹
30 | B3 | 2.84e-05 s⁻¹
31 | B4 | 0.000216 s⁻¹
32 | B5 | 6.41e-05 s⁻¹
33 | B8 | 0.000116 s⁻¹
34 | B9 | 7.59e-05 s⁻¹
35 | B10 | 0.000132 s⁻¹
36 | B11 | 0.000116 s⁻¹

Each binder was assayed against T1, human IL-17F (assay: SPR (Biacore) off-rate).

Row | Binder | koff
37 | B1 | 0.00267 s⁻¹
38 | B2 | 0.0349 s⁻¹
39 | B3 | 0.00147 s⁻¹
40 | B4 | 0.00432 s⁻¹
41 | B5 | 0.0024 s⁻¹
42 | B6 | 0.0013 s⁻¹
43 | B7 | 0.00083 s⁻¹
44 | B8 | 0.00596 s⁻¹
45 | B9 | 0.00431 s⁻¹
46 | B10 | 0.0044 s⁻¹
47 | B11 | 0.00367 s⁻¹

The binders below were run against T4, human IL-17A (assay: SPR Biacore, hIL-17A on chip; periplasmic extract (*)).
Experimental: (§1) Off-rates of the periplasmic extracts containing anti-IL-17 Nanobodies were measured by Surface Plasmon Resonance (SPR) using a Biacore T100 instrument. […] Periplasmic extracts containing IL-17 neutralizing Nanobodies were injected for 2 minutes at a flow rate of 45 μl/min to allow binding to chip-bound antigen. Next, binding buffer without periplasmic extracts was sent over the chip at the same flow rate to allow spontaneous dissociation of bound Nanobody. From the sensorgrams obtained for the different periplasmic extracts koff-values (k₄) were calculated.

Row | Binder | koff
48 | B12 | 0.0009 s⁻¹
49 | B13 | 0.0001 s⁻¹
50 | B14 | 0.00044 s⁻¹

Each binder was assayed against T4, human IL-17A (assay: SPR Biacore, hIL-17A on chip; purified protein).

Row | Binder | koff
51 | B15 | 0.00029 s⁻¹
52 | B16 | 0.00022 s⁻¹

These binders were tested against T2, human IL-17F (assay: SPR Biacore, hIL-17F on chip; periplasmic extract (*); NB = no binding).
Experimental: as §1

Row | Binder | binding result
53 | B12 | no binding
54 | B13 | no binding
55 | B14 | no binding

The binders below were run against T5, human IL-17A/F heterodimer (assay: AlphaScreen competition, hIL-17A/F - IL-17RC-Fc).
Experimental: (§2) To this mixture, the IL-17RA or IL-17RC Fc-fusions, Acceptor beads and the streptavidin Donor beads were added and further incubated for 1 hour at RT.

Row | Binder | IC50
56 | B12 | > 250 nM
57 | B14 | 94.7 nM
58 | B15 | 0.801 nM
59 | B16 | 0.087 nM

The binders below were run against T2, human IL-17F (assay: AlphaScreen competition, hIL-17F - IL-17RC-Fc).
Experimental: as §2

Row | Binder | IC50
60 | B15 | 0.168 nM
61 | B16 | 13.3 nM

What follows are binders tested against T4, human IL-17A (assay: AlphaScreen competition, hIL-17A - IL-17RA-Fc;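 further: receptor Fc-fusion plus Acceptor and streptavidin Donor beads incubated with the mixture for 1 h at room temperature before reading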).
Experimental: as §2

Row | Binder | IC50
62 | B12 | 0.256 nM
63 | B13 | 0.058 nM
64 | B14 | 0.13 nM
65 | B15 | 0.066 nM
66 | B16 | 0.173 nM

These binders were tested against T5, human IL-17A/F heterodimer (assay: AlphaScreen competition, hIL-17A/F - IL-17RA-Fc).
Experimental: as §2

Row | Binder | IC50
67 | B13 | > 250 nM
68 | B14 | 71.7 nM
69 | B15 | 0.264 nM
70 | B16 | 0.231 nM

What follows are binders tested against T2, human IL-17F (assay: SPR Biacore, hIL-17F on chip; purified protein).
Experimental: as §1

Row | Binder | koff
71 | B15 | 0.056 s⁻¹
72 | B16 | 0.14 s⁻¹

Each binder was assayed against T2, human IL-17F (assay: AlphaScreen competition, hIL-17F - IL-17RA-Fc).
Experimental: as §2

Row | Binder | IC50
73 | B15 | 0.296 nM
74 | B16 | 36.6 nM

These binders were tested against T4, human IL-17A (assay: AlphaScreen competition, hIL-17A - IL-17RC-Fc;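 further: Read-out after 1 h at room temperature with the receptor Fc-fusion, Acceptor beads and streptavidin-coated Donor beads present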).
Experimental: as §2

Row | Binder | IC50
75 | B12 | 0.778 nM
76 | B13 | 0.38 nM
77 | B14 | 0.363 nM
78 | B15 | 0.169 nM
79 | B16 | 0.408 nM

What follows are binders tested against T7, human IL-17A (human, UniProt Q16552 24-155) (assay: AlphaScreen IL-17A-IL-17RA, average).
T7 construct: secreted form (GenBank U32659) expressed in Hek293 with C-terminal 6-His; also called hIL-17A; IL-17A-6HIS
T7 sequence (Q16552 other isoform, or with tags, fused parts or gaps): as the sequence (Q16552 other isoform, or with tags, fused parts or gaps) above

Row | Binder | IC50
80 | B17 | 0.171 nM
81 | B18 | 0.177 nM

Each binder was assayed against T1, human IL-17F (assay: AlphaScreen hIL-17F-IL-17RC; vs IL17MS13E02).

Row | Binder | IC50 fold difference vs WT
82 | B1 | 0.8 fold
83 | B2 | 4.6 fold
84 | B3 | 1.3 fold
85 | B4 | 0.9 fold
86 | B5 | 0.9 fold
87 | B6 | 0.6 fold
88 | B7 | 0.5 fold
89 | B8 | 2.7 fold
90 | B9 | 1.22 fold
91 | B10 | 2.2 fold
92 | B11 | 1 fold

What follows are binders tested against T5, human IL-17A/F heterodimer (assay: cell-based or functional assay).
Target sequence in this assay (Q16552 24-155 limits assumed, chain 1 of 2, one chain of several): as the sequence (Q16552 24-155 limits assumed, chain 1 of 2, one chain of several) above

Row | Binder | IL-17A/F-induced IL-6 production in HT-1080 cells, Emax | IL-17A/F-induced IL-6 production in HT-1080 cells, IC50
93 | B15 | 107% | 41.8 nM
94 | B16 | 118% | 37.1 nM
